B1: Sth1 (AA 301–1097), truncated ATPase subunit of RSC (domain or fragment)
chain: VRLAEELERQQLLEKRKKERNLHLQKINSIIDFIKERQSEQWSRQERCFQFGRLGASLHNQMEKDEQKRIERTAKQRLAALKSNDEEAYLKLLDQTKDTRITQLLRQTNSFLDSLSEAVRAQQNEAKILHGEEVQPITDEEREKTDYYEVAHRIKEKIDKQPSILVGGTLKEYQLRGLEWMVSLYNNHLNGILADEMGLGKTIQSISLITYLYEVKKDIGPFLVIVPLSTITNWTLEFEKWAPSLNTIIYKGTPNQRHSLQHQIRVGNFDVLLTTYEYIIKDKSLLSKHDWAHMIIDEGHRMKNAQSKLSFTISHYYRTRNRLILTGTPLQNNLPELWALLNFVLPKIFNSAKTFEDWFNTPFANTGTQEKLELTEEETLLIIRRLHKVLRPFLLRRLKKEVEKDLPDKVEKVIKCKLSGLQQQLYQQMLKHNALFVGAGTEGATKGGIKGLNNKIMQLRKICNHPFVFDEVEGVVNPSRGNSDLLFRVAGKFELLDRVLPKFKASGHRVLMFFQMTQVMDIMEDFLRMKDLKYMRLDGSTKTEERTEMLNAFNAPDSDYFCFLLSTRAGGLGLNLQTADTVIIFDTDWNPHQDLQAQDRAHRIGQKNEVRILRLITTDSVEEVILERAMQKLDIDGKVIQAGKFDNKSTAEEQEAFLRRLIESETNRDDDDKAELDDDELNDTLARSADEKILFDKIDKERMNQERADAKAQGLRVPPPRLIQLDELPKVFREDIEEHFKKEDSEPLGRIRQKKRVYYDDGLTEEQFLEAVEDDNMSLEDAIKKRREARERRRLRQ
B3: Arp7 (natural protein)
chain: MTLNRKCVVIHNGSHRTVAGFSNVELPQCIIPSSYIKRTDEGGEAEFIFGTYNMIDAAAEKRNGDEVYTLVDSQGLPYNWDALEMQWRYLYDTQLKVSPEELPLVITMPATNGKPDMAILERYYELAFDKLNVPVFQIVIEPLAIALSMGKSSAFVIDIGASGCNVTPIIDGIVVKNAVVRSKFGGDFLDFQVHERLAPLIKEENDMENMADEQKRSTDVWYEASTWIQQFKSTMLQVSEKDLFELERYYKEQADIYAKQQEQLKQMDQQLQYTALTGSPNNPLVQKKNFLFKPLNKTLTLDLKECYQFAEYLFKPQLISDKFSPEDGLGPLMAKSVKKAGASINSMKANTSTNPNGLGTSHINTNVGDNNSTASSSNISPEQVYSLLLTNVIITGSTSLIEGMEQRIIKELSIRFPQYKLTTFANQVMMDRKIQGWLGALTMANLPSWSLGKWYSKEDYETLKRDRKQSQATNATN
B4: Arp9 (natural protein)
chain: MAPFRQDSILIIYPRSQTTLVQFGLNEETFTVPELEIPTQIYRTTRQDGSYTYHSTNKDNKAELIKPIQNGEIIDISAFTQFLRLIFVSILSDRANKNQDAFEAELSNIPLLLITHHSWSQSDLEIITQYVFESLEINNLIQLPASLAATYSMISLQNCCIIDVGTHHTDIIPIVDYAQLDHLVSSIPMGGQSINDSLKKLLPQWDDDQIESLKKSPIFEVLSDDAKKLSSFDFGNENEDEDEGTLNVAEIITSGRDTREVLEERERGQKVKNVKNSDLEFNTFWDEKGNEIKVGKQRFQGCNNLIKNISNRVGLTLDNIDDINKAKAVWENIIIVGGTTSISGFKEALLGQLLKDHLIIEPEEEKSKREEEAKSVLPAATKKKSKFMTNSTAFVPTIEYVQCPTVIKLAKYPDYFPEWKKSGYSEIIFLGAQIVSKQIFTHPKDTFYITREKYNMKGPAALWDVQF

What was measured:
[1] = target: T1, Arp7/Arp9/Rtt102 heterotrimer (S. cerevisiae, UniProt Q12406;Q05123;P53330); assay: cryo-EM structure
T1 sequence 1: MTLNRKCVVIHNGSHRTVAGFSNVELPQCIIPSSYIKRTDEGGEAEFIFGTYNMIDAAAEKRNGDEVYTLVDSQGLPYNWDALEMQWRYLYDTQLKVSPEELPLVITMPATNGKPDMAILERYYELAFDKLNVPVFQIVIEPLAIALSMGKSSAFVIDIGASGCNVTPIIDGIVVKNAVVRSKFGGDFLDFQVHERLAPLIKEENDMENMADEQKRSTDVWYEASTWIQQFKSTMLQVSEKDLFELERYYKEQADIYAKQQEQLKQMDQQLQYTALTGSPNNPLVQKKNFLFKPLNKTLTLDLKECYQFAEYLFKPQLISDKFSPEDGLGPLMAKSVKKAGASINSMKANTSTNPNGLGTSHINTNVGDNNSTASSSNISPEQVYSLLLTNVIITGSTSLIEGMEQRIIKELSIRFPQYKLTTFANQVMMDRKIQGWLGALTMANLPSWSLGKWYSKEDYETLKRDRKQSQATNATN
T1 sequence 2: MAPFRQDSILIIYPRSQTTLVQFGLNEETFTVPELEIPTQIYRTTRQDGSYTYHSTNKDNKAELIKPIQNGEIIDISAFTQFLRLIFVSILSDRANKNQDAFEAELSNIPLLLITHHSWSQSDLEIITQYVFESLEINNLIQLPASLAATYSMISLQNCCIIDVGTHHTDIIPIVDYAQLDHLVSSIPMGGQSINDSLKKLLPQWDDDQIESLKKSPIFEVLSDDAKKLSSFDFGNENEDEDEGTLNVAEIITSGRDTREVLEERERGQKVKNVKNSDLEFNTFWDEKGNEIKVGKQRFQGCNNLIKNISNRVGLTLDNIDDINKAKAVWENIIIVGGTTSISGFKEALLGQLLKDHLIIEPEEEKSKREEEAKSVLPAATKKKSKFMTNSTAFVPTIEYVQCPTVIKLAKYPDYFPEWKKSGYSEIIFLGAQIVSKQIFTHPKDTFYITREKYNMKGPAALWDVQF
T1 sequence 3: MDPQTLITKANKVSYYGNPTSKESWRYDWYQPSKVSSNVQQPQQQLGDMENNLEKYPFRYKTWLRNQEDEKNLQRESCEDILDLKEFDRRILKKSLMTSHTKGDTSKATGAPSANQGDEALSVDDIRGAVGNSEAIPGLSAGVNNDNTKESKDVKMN

[2] = target: T1, Arp7/Arp9/Rtt102 heterotrimer; assay: circular dichroism
[3] = target: B1; assay: cryo-EM structure
Arp7 = target: B3; assay: cryo-EM structure
Arp9 = target: B4; assay: cryo-EM structure

B1
binding result [1]: binds

B2: HSA peptide (Sth1 residues 316–377) (peptide)
peptide: RKKERNLHLQKINSIIDFIKERQSEQWSRQERCFQFGRLGASLHNQMEKDEQKRIERTAKQR
binding result [2]: binds

B3
binding result [3]: binds

B4
binding result [3]: binds
binding result (Arp7): binds

B5: Rtt102 (natural protein)
chain: MDPQTLITKANKVSYYGNPTSKESWRYDWYQPSKVSSNVQQPQQQLGDMENNLEKYPFRYKTWLRNQEDEKNLQRESCEDILDLKEFDRRILKKSLMTSHTKGDTSKATGAPSANQGDEALSVDDIRGAVGNSEAIPGLSAGVNNDNTKESKDVKMN
binding result (Arp9): binds
binding result (Arp7): binds
